The values that follow come from the supplement of paper PMC12042874.

± gives the uncertainty stated by the source.

A short description of this series: amyloid nucleation score (Sup35N fusion, yeast selection) (log enrichment); library NNK2; higher = more nucleation; inactive = no reads after selection. The method, boiled down: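 Peptides of 20 random codons, each fused to Sup35N, were expressed in psi-negative yeast. Cells were induced with 100 μM copper sulfate for 24 hours and grown 7 days at 30°C on medium lacking adenine and uracil, and plasmid inserts before and after selection were Illumina-sequenced. Nucleation scores are DiMSum log enrichments of output over input reads, centred on the mode score of non-aggregating sequences, and sequences under 100 input reads were excluded.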
In turn, EVDSVNVSLCVS registered an amyloid nucleation score of -0.796 ± 0.64. DYMDAYGYINRGDPGLIVEV yielded an amyloid nucleation score of -0.013 ± 0.53. YRLNVNKSSNQGV gave an amyloid nucleation score of -0.712 ± 0.45. HNITLLQLNCKWLKMVYEWT came in with an amyloid nucleation score of 9.366 ± 0.061. The value for VVRPVTLRFCTKGGMYSSVG was 0.407 ± 0.32; that for WFGFGESAHLYRLREEDFHD was -0.206 ± 0.79. The value for QNAMGTSVDYNVNFVYVGNL was 3.38 ± 0.089; that for NTLITRVHHDQLPRLSDLLL was 1.28 ± 0.38.

With MIHQIELNDIGWVLTTFCNE, the amyloid nucleation score was -0.536 ± 1.

For the substance RLSFQSCCLPFVYWNWW, the amyloid nucleation score was 7.738 ± 0.048.

In turn, ISGRLNRDGGSDKMSAEREG showed an amyloid nucleation score of 1.25 ± 0.33.

As to VVDGYYGFWVVSQEDISIYP, the amyloid nucleation score is -0.094 ± 0.54.

With RDWRVFIYFMGNVVLDY, the amyloid nucleation score was 5.59 ± 0.08. The value for IATTATSVGSVR was 0.924 ± 0.25.

With RFAFFVYPTYMRMTVTVLSY, the amyloid nucleation score entry was “inactive”. The substance SWKSFKRPGTRCRGQYYYMS registered an amyloid nucleation score of -0.266 ± 1. The substance DNGNTMDES came in with an amyloid nucleation score of 0.232 ± 0.55. The substance LVSFKGKVLFFIS yielded an amyloid nucleation score of 1.86 ± 0.13. LRFLLPPTMTVGMKFSSDAG had an amyloid nucleation score of 0.062 ± 0.79. With RMYLVYNFLRLDLSARVVLA, the amyloid nucleation score entry was “inactive”. On to NWLQDK, for which the amyloid nucleation score came to 1.61 ± 0.55. LVHMLCQ came in with an amyloid nucleation score of 0.893 ± 0.24.

Consider CKRQYHYLIWRMMEMSPGVL, for which the amyloid nucleation score is 5.07 ± 0.058. As for MCMLTLRLNQLYMAIMHG, the amyloid nucleation score worked out at 0.603 ± 0.36. Take INGVPNGYMATLGTTCVKKF: the amyloid nucleation score was -1.11 ± 0.4. As for SKARGLCFLSVLLFISDQST, the figure is -1.78 ± 1.1; as for SLETFNVTPCRDVT, -0.633 ± 1.1. As for KLAYIAMTVSITGFDPCAWD, the amyloid nucleation score came out at 2.55 ± 0.068. Take WFNFVPYHADYGNFL: the amyloid nucleation score is 0.053 ± 1.1. Take SIAWRLEFIVDDGVLFRCKS: the amyloid nucleation score was -0.563 ± 0.35. RLRYM registered an amyloid nucleation score of -0.631 ± 0.76.

VKPVSVFL showed an amyloid nucleation score of -0.11 ± 0.63. For the substance WDTHLYQDMGCFAHLFIRYF, the amyloid nucleation score entry was “inactive”. In the case of YRFKLFTHRYILFNWVFLLL, the amyloid nucleation score result is “inactive”. For the substance RVLKFFYGLTRVVS, the amyloid nucleation score was determined as 1.23 ± 0.12.

Take GMVFRRWREMYSSFVDRTLR: the amyloid nucleation score worked out at 0.799 ± 0.51. For the substance SVYVANYGYPRSGLN, the amyloid nucleation score turned out to be 7.02 ± 0.078. As for SSPAACYMR, the figure is -1.69 ± 1.1; as for ASVPCVIMGRASRPRVPRMS, 1.42 ± 0.29.

Regarding RPTHEAF, the amyloid nucleation score was 5.87 ± 0.089. Substance HKWKII registered an amyloid nucleation score of -1.55 ± 0.75. The value for RHKYMIKVILRHFTFIIIGS was -0.05 ± 0.62; that for GKKTAGDIRCWWRWSLGCSP was 0.731 ± 0.57. On to YGPYSLSSF, for which the amyloid nucleation score was -0.105 ± 1.1. As for GLRSIGLGVQSFRSYQFSRI, the amyloid nucleation score is -0.415 ± 0.45. FMTNGFFVSLWFTCGDSVLS registered an amyloid nucleation score of 5.68 ± 0.078. The substance HKGVM returned an amyloid nucleation score of -1.06 ± 0.5. As for YTRKVSAG, the figure is -0.063 ± 0.36. In turn, GWMCMPAQGAKDNHLLGYLM returned an amyloid nucleation score of -0.533 ± 0.55. For the substance FVNIFIIHADYVGHRPAELR, the amyloid nucleation score was 9.092 ± 0.081. As for LSLLRFLNCMRYCLCIGLAS, the amyloid nucleation score worked out at 4.14 ± 0.093. Substance WNSVIFCR had an amyloid nucleation score of -0.704 ± 0.37. Substance LNTKTCVIPSTTCVTIPERE had an amyloid nucleation score of 0.242 ± 0.17. In the case of RFGFRSGPTSSRMWYSFLEF, the amyloid nucleation score came to 3.15 ± 0.11. The substance HTKMYRAAARMVGAGNDFDM came in with an amyloid nucleation score of 0.146 ± 0.46.

Turning to YGLWVYMNWLVSLRSLLTRI, the amyloid nucleation score entry was “inactive”. DNSAGDLYNSSVTGSPVMQL came in with an amyloid nucleation score of -0.447 ± 0.22. Take AEMVSANRLSKCEMTIRLWD: the amyloid nucleation score amounted to 3.64 ± 0.077. Consider WHSHMYNWWEQ, for which the amyloid nucleation score was found to be 1.09 ± 0.28. The value for LNFIGFK was 0.102 ± 0.74; that for PCITRTARSQIVTFKRG was -0.35 ± 1.1; that for KRYWSPVFVQNYIDDFKVSD was 0.453 ± 0.34. As for SNMNNPRHLCAKLSKRQMSY, the entry is “inactive”; as for DCDMVFFLGIFFKSSGGKGN, 2.57 ± 0.083. Turning to HSGMRMRPASSCSPKKP, the amyloid nucleation score came to 0.189 ± 0.49.

Regarding STMKC, the amyloid nucleation score is -0.29 ± 0.56. Consider LTSSRRF, for which the amyloid nucleation score was found to be 5.724 ± 0.037.

The substance RGSFYNGRS registered an amyloid nucleation score of 0.049 ± 0.76. LKYCVH showed an amyloid nucleation score of -0.414 ± 0.61. LCQHREMALMLGGEPADDWG registered an amyloid nucleation score of 1.87 ± 0.36. RNTTKWKMMTLTFNCTRRKK came in with an amyloid nucleation score of -0.766 ± 1. As to MVAGITFTNASIWTYNK, the amyloid nucleation score was found to be 3.63 ± 0.075.

Substance LIFFCLFEYRLRLHCNRRDH had an amyloid nucleation score of -1.34 ± 0.49. As to RFRWTSVSRVKGCFNKMYPS, the amyloid nucleation score amounted to 0.1 ± 0.3.

Take ALWCRENFINCYIPYLQMFF: the amyloid nucleation score was found to be 6.219 ± 0.036.

For the substance QPGSLMGNRPKESVRASRAR, the amyloid nucleation score is -0.104 ± 0.45. Regarding PDHKLARTIYWAPCTMDWVI, the amyloid nucleation score was -0.057 ± 0.61. For YCTNFYVEAGAIGS, the amyloid nucleation score was -0.682 ± 0.42. FGSVEVVRRIRSFWLFESPR gave an amyloid nucleation score of 3.58 ± 0.14. Turning to LAPLDLSLVFWNTRNVLVL, the amyloid nucleation score was 0.746 ± 0.67. As for TWNLMNKVYIVPGLDPDTRS, the figure is 7.225 ± 0.055; as for TFFMVGNMNNTPSPRPARTK, 4.57 ± 0.089; as for FWLSYTDLWNNY, “inactive”. Consider PLGTSTTSFRSAVFQGMTWL, for which the amyloid nucleation score entry is “inactive”. RVSRRCVYWRRQGHWAIFGQ gave an amyloid nucleation score of 0.098 ± 1. On to NRWLYFHS, for which the amyloid nucleation score is -0.678 ± 0.76. In the case of YNRGMQLIAVVL, the amyloid nucleation score turned out to be 0.725 ± 0.39.

In turn, ECNQCWNMGMM came in with an amyloid nucleation score of -0.252 ± 0.76.

ISHMYCSFGSLVLFSGIRFR showed an amyloid nucleation score of -0.774 ± 0.53. SFNRS had an amyloid nucleation score of 0.87 ± 0.31. As to RLFVPFVFFQAMPTEREPFH, the amyloid nucleation score was -0.79 ± 1. On to KSVRGPCSYIFKYSCY, for which the amyloid nucleation score came to 2.59 ± 0.22. LLRVDRCCWDN came in with an amyloid nucleation score of -0.011 ± 0.54. Regarding VRFPTSLFSAEQCTPALCSV, the amyloid nucleation score amounted to 0.066 ± 1. As for LKVISTCLRWQHASLPCQ, the amyloid nucleation score is 0.822 ± 0.43. Take FWCGCNFVVHLYVTSSSLKP: the amyloid nucleation score was found to be 8.006 ± 0.065. NNKLSRV came in with an amyloid nucleation score of -0.661 ± 1.1. For RCGKCGLYS, the amyloid nucleation score was determined as 0.067 ± 0.5. For VLLRVRRCYSVPTFRVWSAT, the amyloid nucleation score stood at 1.39 ± 0.18. On to GDPDQVYSFR, for which the amyloid nucleation score stood at 0.034 ± 1.1. As to MIVFLYRLY, the amyloid nucleation score is -0.061 ± 0.39.

The substance KTCTLIGAMLIA came in with an amyloid nucleation score of -0.385 ± 0.56. For the substance PWYGSQGNTKSCYSFVMSLP, the amyloid nucleation score was found to be 0.06 ± 0.34. SRMRVLFALLQDFQSHVGSV registered an amyloid nucleation score of 1.36 ± 0.11.

For the substance FRYHRTSCQSHSVWRTFTSF, the amyloid nucleation score is -0.884 ± 0.39.
